Patent publication US20090130093A1 (AstraZeneca / MedImmune, published 2009)

Assays:
Assay in all cases: cell-based or functional assay
[1] = molecular target: T1, human GM-CSFRα (mature receptor alpha chain, as on human cells) (human, UniProt P15509 23-400)
T1 sequence: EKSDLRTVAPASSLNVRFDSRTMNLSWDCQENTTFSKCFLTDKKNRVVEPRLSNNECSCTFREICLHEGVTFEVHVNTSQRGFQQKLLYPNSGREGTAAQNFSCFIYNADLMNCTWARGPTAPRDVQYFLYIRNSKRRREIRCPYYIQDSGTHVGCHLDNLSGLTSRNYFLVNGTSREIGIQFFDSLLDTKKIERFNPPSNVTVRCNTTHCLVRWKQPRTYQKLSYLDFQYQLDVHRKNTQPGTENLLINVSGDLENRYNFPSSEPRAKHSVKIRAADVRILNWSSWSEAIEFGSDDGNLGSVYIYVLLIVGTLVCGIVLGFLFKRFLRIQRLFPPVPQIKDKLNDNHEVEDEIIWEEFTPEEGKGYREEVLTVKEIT

[2] = molecular target: T2, cynomolgus GM-CSFRα on cynomolgus granulocytes (cynomolgus, UniProt A0A2K5UC70 23-393)
T2 sequence: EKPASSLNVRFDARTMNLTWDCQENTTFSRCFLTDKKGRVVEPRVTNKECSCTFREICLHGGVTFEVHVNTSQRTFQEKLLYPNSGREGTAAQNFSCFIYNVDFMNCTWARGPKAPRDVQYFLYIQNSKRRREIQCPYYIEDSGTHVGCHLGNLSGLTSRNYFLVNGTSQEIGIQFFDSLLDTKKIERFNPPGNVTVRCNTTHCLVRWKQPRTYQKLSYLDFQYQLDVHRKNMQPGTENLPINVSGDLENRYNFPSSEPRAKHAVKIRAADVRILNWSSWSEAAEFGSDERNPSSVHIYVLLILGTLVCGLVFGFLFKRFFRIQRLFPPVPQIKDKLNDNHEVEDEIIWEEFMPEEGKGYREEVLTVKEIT

[3] = molecular target: T1, human GM-CSFRα (mature receptor alpha …); remark: listed apart in the source

B1: Antibody 13 IgG4 (antibody, V domains shown)
VH: QVQLVQSGAEVKKPGASVKVSCKISGHSLSELSIHWVRQTPTKGFEWMGGFDPEENEIVYAQRFQGRVTMTEDTSIDTAYLTLSSLRSDDTAVYYCSIVGSFSGWAFDYWGKGTMVTVSS
VL: QAVLTQPSSVSGAPGQRVTISCTGSGSNIGAPYDVSWYQQLPGTAPKLLIYHNNKRPSGVPDRFSASKSGTSASLAITGLQADDEADYYCQSYDSRTGIIVFGGGTKVTVL
[1]
  IC50, GM-CSF induced proliferation of TF-1 cells: 1.11 nM

B2: 28G5 (Antibody 3) IgG4, parent antibody (antibody, V domains shown)
VH: QVQLVQSGAEVKKPGASVKVSCKISGHSLSELSIHWVRQTPTKGFEWMGGFDPEENEIVYAQRFQGRVTMTEDTSIDTAYLTLSSLRSDDTAVYYCSIVGSFSGWAFDYWGKGTMVTVSS
VL: QAVLTQPSSVSGAPGQRVTISCTGSGSNIGAPYDVSWYQQLPGTAPKLLIYHNNKRPSGVPDRFSASKSGTSASLAITGLQADDEADYYCQSYDSSLSGSVFGGGTKVTVL
[2]
  IC50, cynomolgus granulocyte shape change assay: ~5 nM

B3: Antibody 6 IgG4, non-germlined (antibody, V domains shown)
VH: QVQLVQSGAEVKKPGASVKVSCKISGHSLSELSIHWVRQTPTKGFEWMGGFDPEENEIVYAQRFQGRVTMTEDTSIDTAYLTLSSLRSDDTAVYYCSIVGSFSPLTLGLWGKGTMVTVSS
VL: QAVLTQPSSVSGAPGQRVTISCTGSGSNIGAPYDVSWYQQLPGTAPKLLIYHNNKRPSGVPDRFSASKSGTSASLAITGLQADDEADYYCATVEAGLSGSVFGGGTKLTVL
[2]
  IC50, cynomolgus granulocyte shape change assay: 0.00173 nM

B4: Antibody 18 IgG4 (antibody, V domains shown)
VH: QVQLVQSGAEVKKPGASVKVSCKISGHSLSELFIHWVRQTPTKGFEWMGGFDPEENEIVYAQRFQGRVTMTEDTSIDTAYLTLSSLRSDDTAVYYCSTVGSFSGPALHLWGKGTMVTVSS
VL: QAVLTQPSSVSGAPGQRVTISCTGSGSNIGAPYDVSWYQQLPGTAPKLLIYHNNKRPSGVPDRFSASKSGTSASLAITGLQADDEADYYCQSYDSQWNQPLFGGGTKVTVL
[1]
  IC50, GM-CSF induced proliferation of TF-1 cells: 0.0133 nM

B5: Antibody 2 IgG4 (antibody, V domains shown)
VH: QVQLVQSGAEVKKPGASVKVSCKISGHSLSELSIHWVRQTPTKGFEWMGGFDPEENEIVYAQRFQGRVTMTEDTSIDTAYLTLSSLRSDDTAVYYCSIVGSFSGPALRPWGKGTMVTVSS
VL: QAVLTQPSSVSGAPGQRVTISCTGSGSNIGAPYDVSWYQQLPGTAPKLLIYHNNKRPSGVPDRFSASKSGTSASLAITGLQADDEADYYCQSYDSSLSGSVFGGGTKVTVL
[2]
  IC50, cynomolgus granulocyte shape change assay: 0.0032 nM

B6: Antibody 6 (germlined or non-germlined not stated at these places) (antibody, V domains shown)
VH: QVQLVQSGAEVKKPGASVKVSCKVSGYTLTELSIHWVRQAPGKGLEWMGGFDPEENEIVYAQRFQGRVTMTEDTSTDTAYMELSSLRSEDTAVYYCAIVGSFSPLTLGLWGQGTMVTVSS
VL: QSVLTQPPSVSGAPGQRVTISCTGSGSNIGAPYDVSWYQQLPGTAPKLLIYHNNKRPSGVPDRFSGSKSGTSASLAITGLQAEDEADYYCATVEAGLSGSVFGGGTKLTVL
[3]
  IC50, colony formation assay with 10 ng/ml human GM-CSF: ~0.08 µg/mL
